Patent US20170107273A1 (JAPAN AS REPRESENTED BY DIRECTOR GENERAL OF NATIONAL …, published 2017)
* marks the point of attachment. Biotin = O=C1N[C@H]2[C@H](CS[C@H]2CCCCC(=O)*)N1

T1: QLINTNGSWHIN (SEQ ID NO: 37), TH E2 protein-derived peptide (Hepatitis C virus TH strain (genotype …, SMILES …))
T1 construct: also called linear peptide of 12 amino acid residues
T1 peptide: Biotin-QLINTNGSWHING-NH2

T2: E2 protein of the TH strain (genotype 1b) on TH/JFH-1 HCVcc (Hepatitis C virus TH strain (genotype …))
T2 chain: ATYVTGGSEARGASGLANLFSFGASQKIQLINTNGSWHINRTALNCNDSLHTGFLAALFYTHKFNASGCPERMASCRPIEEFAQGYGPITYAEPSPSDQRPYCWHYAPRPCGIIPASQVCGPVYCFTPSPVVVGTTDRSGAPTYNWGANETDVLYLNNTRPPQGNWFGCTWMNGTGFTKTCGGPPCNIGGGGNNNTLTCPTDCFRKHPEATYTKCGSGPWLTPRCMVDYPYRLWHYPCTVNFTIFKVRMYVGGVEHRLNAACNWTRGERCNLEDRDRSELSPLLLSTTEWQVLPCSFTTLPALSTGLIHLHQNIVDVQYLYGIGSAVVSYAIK

T3: denatured TH E2-Fc protein (Hepatitis C virus TH strain (genotype …))
T3 construct: also called denatured E2 protein; not shown: Fc domain of human immunoglobulin (human IgG) from vector CDM-mIL7R-Ig
T3 chain: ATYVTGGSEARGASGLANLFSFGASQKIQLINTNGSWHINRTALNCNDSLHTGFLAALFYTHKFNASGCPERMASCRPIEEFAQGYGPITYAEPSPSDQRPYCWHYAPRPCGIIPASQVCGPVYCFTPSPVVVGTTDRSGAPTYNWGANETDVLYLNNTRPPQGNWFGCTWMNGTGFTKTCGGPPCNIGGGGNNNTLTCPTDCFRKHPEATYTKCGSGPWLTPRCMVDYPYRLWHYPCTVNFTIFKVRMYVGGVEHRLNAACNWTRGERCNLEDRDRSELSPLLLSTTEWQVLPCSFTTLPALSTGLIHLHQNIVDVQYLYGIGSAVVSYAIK


Assays:
[1] = target: T1, QLINTNGSWHIN (SEQ ID NO: 37), TH E2 …; experiment: ELISA on biotinylated 12-mer peptides on streptavidin plates
[2] = target: T2, E2 protein of the TH strain (genotype …); experiment: cell-based or functional assay
[3] = target: E2 protein of the H77 strain (genotype 1a) on H77/JFH-1 HCVcc (Hepatitis C virus H77 strain (genotype …, UniProt P27958 384-746)); experiment: cell-based or functional assay
[4] = target: E2 protein of the S310 strain (genotype 3a) on S310/JFH-1 HCVcc (Hepatitis C virus S310 strain (genotype …)); experiment: cell-based or functional assay
[5] = target: E2 protein on J6/JFH-1 HCVcc-8W (J6/JFH-1 HCVcc after 8 rounds of subculture infection in the presence of the …); experiment: cell-based or functional assay
[6] = target: T3, denatured TH E2-Fc protein; experiment: ELISA, biotinylated antibody on immobilized denatured TH E2-Fc, avidin-HRP

Sequence of E2 protein of the H77 strain (genotype 1a) on H77/JFH-1 HCVcc (Hepatitis C virus H77 strain (P27958 384-746 limits assumed): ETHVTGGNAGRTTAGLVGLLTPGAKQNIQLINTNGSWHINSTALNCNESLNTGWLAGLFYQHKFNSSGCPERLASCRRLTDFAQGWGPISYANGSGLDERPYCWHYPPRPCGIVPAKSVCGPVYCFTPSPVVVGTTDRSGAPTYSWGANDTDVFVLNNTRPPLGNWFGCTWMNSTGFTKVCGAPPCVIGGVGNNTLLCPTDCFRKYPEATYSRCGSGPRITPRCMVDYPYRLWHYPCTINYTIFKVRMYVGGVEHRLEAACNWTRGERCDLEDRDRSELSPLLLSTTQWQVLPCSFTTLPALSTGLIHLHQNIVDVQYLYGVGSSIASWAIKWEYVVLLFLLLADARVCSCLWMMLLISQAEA

Binder | binding result [1] | IC50 (µg/mL) of infection inhibiting activity against HCVcc (HCV core protein in Huh-7 cells) [2] [µg/mL] | IC50 (µg/mL) of infection inhibiting activity against HCVcc (HCV core protein in Huh-7 cells) [3] [µg/mL] | IC50 (µg/mL) of infection inhibiting activity against HCVcc (HCV core protein in Huh-7 cells) [4] [µg/mL] | IC50 (µg/mL), 50% infection inhibiting concentration (infectious titer, focus count on Huh-7 cells) [5] [µg/mL] | binding result [6]
e2d066 IgG (antibody, V domains shown, Human IgG1 made in CHO-K1 cells; also called biotinylated e2d066 IgG; ed2066 IgG) VH: QVQLVQSGSDVKKPGSSVRVSCKASGGSFNSYAVNWVRQAPGQGLEWMGRIMPLVGLPEYAERFQERVTFTADKSTRTAYMDLTSLSSDDTAFYFCAVGVMKIFGEVPLNLDFWGQGTLVTVSS VL: QAVLTQPSSVSGSPGQSITISCTGTSNDVGSYRYVSWFQQHPGKAPKLMIYDVNKRPSGVSSRFSGSKSGNTASLTISGLQAEDEANYYCSSYTRSSSLAFGGGTKLTVLS | no binding (tested: 1 µg/mL) | 0.11 | 3.3 | 1.03 | < 0.01 | 
e2d081 IgG (antibody, V domains shown, Human IgG1 made in CHO-K1 cells; also called eE2d081 IgG) VH: QVQLVQSGSDVKKPGSSVRVSCKASGGSFNSYAVNWVRQAPGQGLEWMGRIMPLVGLPEYAERFQERVTFTADKSTRTAYMDLTSLSSDDTAFYFCAVGVMKIFGEVPLNLDFWGQGTLVTVSS VL: QSVLTQPPSVSAAPGQKVTISCSGTSSNIGDNYVSWYQHLPGSAPKLLIYDNNKRPSGIPDRFSGSKSGTSATLGITGLQTGDEADFYCGTWDSSLSSVVFGGGTKLTVLG | no binding (tested: 1 µg/mL) | 0.05 | 0.66 | 0.5 | 0.67 | 
e2d073 IgG (antibody, V domains shown, Human IgG1 made in CHO-K1 cells) VH: QVQLVQSGAEVKKPGSSVKVSCKASGASFNSFAIDWVRQAPGQGLEWMGRIIPIADVSDYAQKFQGRVTITADKSTRTAYMELTTLRSDDTAVYYCATSPMLTFGGPNAFGAFDVWGQGTMVTVSS VL: not shown | no binding (tested: 1 µg/mL) | 0.25 | > 30 | 10.4 | 59.4 | no binding
